6 molecules from US20140087995A1 (published 2014) can be followed below.

The target in assay [1] is T1, rat calcitonin receptor (rat, UniProt P32214 25-516).
T1 construct: whole, on cells; Membranes of transiently transfected BHK tk'ts 13 cells; also called rCTR; rat calcitonin (a) receptor
T1 sequence (looked up): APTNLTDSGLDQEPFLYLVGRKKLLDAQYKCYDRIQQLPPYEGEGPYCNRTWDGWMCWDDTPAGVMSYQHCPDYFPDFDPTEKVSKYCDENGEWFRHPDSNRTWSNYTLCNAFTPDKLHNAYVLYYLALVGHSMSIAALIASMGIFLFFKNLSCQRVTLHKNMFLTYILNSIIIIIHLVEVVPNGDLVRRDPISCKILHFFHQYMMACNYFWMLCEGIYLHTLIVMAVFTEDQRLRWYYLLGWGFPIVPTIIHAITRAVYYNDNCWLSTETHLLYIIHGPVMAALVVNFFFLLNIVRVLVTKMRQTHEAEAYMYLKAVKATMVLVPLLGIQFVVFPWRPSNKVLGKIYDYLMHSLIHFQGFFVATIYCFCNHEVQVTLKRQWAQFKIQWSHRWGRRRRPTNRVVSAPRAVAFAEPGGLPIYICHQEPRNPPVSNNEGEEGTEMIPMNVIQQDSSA
The assay is described as follows: ratio of IC50 on rat calcitonin receptor to IC50 on rat amylin receptor (reference m40).

In assay [2] the target is T2, rat amylin receptor (rat calcitonin receptor + rat RAMP 3) (rat, UniProt P32214 25-516; Q9JJ73 23-147).
T2 construct: whole, on cells; Membranes of transiently transfected BHK tk'ts 13 cells; also called rAmylin-R; rat amylin 3(a) receptor
T2 sequence (looked up) 1: T1 sequence (looked up)
T2 sequence (looked up) 2: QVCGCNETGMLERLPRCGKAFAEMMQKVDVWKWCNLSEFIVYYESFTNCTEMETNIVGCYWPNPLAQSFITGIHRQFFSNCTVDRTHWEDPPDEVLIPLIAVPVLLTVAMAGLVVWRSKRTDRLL
The assay is described as follows: SPA competition with 125I-rat amylin on membranes of BHK tk'ts 13 cells with rat calcitonin receptor + rat RAMP3 (Assay VI).

The target in assay [3] is T1, rat calcitonin receptor. The assay is described as follows: SPA competition with 125I-calcitonin on membranes of BHK tk'ts 13 cells with rat calcitonin receptor (Assay VIII).
Assay [4] deals with T3, human calcitonin receptor (human, UniProt P30988 25-474).
T3 construct: whole, on cells; Membranes of stably transfected cells; also called hCTR; hCT
T3 sequence (looked up): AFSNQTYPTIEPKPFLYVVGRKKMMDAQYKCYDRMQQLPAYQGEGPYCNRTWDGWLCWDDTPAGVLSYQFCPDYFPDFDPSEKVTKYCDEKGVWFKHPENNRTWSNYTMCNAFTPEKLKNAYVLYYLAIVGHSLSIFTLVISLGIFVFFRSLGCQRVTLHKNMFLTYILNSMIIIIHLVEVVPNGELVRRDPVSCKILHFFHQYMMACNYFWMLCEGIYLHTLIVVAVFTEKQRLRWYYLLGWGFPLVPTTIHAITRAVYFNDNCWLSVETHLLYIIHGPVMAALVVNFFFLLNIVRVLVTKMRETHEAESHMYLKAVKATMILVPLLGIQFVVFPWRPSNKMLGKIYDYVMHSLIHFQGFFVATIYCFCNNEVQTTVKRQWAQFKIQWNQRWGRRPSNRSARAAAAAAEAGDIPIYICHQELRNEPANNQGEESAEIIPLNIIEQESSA
The assay is described as follows: ratio of IC50 on human calcitonin receptor to IC50 on human amylin receptor (reference m42), SPA competition. An outline of the steps:
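Membranes (35 ng/μL final) + SPA beads, 50 mM Hepes pH 7.4 buffer with 1 mM CaCl2, 5 mM MgCl₂, 0.1% OA, 0.02% Tween20; 120 min, 25° C, shaking; centrifuged, counted; IC₅₀ by one-site binding competition.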

Numbered stars: 1 amine (or outer) side, 2 acyl side, 3 side chain; on linkers, the order of the positions; unused ones are H or OH. Bridge positions count the residues as written; N and C are the ends. Side chains are listed from the residue outwards. Ends that are not written are not given here. * marks the point of attachment. C20 diacid = O=C(O)CCCCCCCCCCCCCCCCCCC(=O)*; γGlu = O=C(O)[C@H](CCC(=O)[*:2])N[*:1]

B1: N^ε1-[(4S)-4-carboxy-4-[[(4S)-4-carboxy-4-(19-carboxynonadecanoylamino)butanoyl]amino]butanoyl]-[Glu14,Arg17,Pro21,Pro27,His34,Glu35]-h-amylin (peptide)
peptide: K([γGlu-γGlu-C20 diacid])CNTATCATQRLAEFLRHSSPNFGAIPSSTNVGHETY-NH2
modifications: disulfide 2-7; N-terminus assumed
SMILES: CC[C@H](C)[C@H](NC(=O)[C@H](C)NC(=O)CNC(=O)[C@H](Cc1ccccc1)NC(=O)[C@H](CC(N)=O)NC(=O)[C@@H]1CCCN1C(=O)[C@H](CO)NC(=O)[C@H](CO)NC(=O)[C@H](Cc1c[nH]cn1)NC(=O)[C@H](CCCNC(=N)N)NC(=O)[C@H](CC(C)C)NC(=O)[C@H](Cc1ccccc1)NC(=O)[C@H](CCC(=O)O)NC(=O)[C@H](C)NC(=O)[C@H](CC(C)C)NC(=O)[C@H](CCCNC(=N)N)NC(=O)[C@H](CCC(N)=O)NC(=O)[C@@H](NC(=O)[C@H](C)NC(=O)[C@@H]1CSSC[C@H](NC(=O)[C@@H](N)CCCCNC(=O)CC[C@H](NC(=O)CC[C@H](NC(=O)CCCCCCCCCCCCCCCCCCC(=O)O)C(=O)O)C(=O)O)C(=O)N[C@@H](CC(N)=O)C(=O)N[C@@H]([C@@H](C)O)C(=O)N[C@@H](C)C(=O)N[C@@H]([C@@H](C)O)C(=O)N1)[C@@H](C)O)C(=O)N1CCC[C@H]1C(=O)N[C@@H](CO)C(=O)N[C@@H](CO)C(=O)N[C@H](C(=O)N[C@@H](CC(N)=O)C(=O)N[C@H](C(=O)NCC(=O)N[C@@H](Cc1c[nH]cn1)C(=O)N[C@@H](CCC(=O)O)C(=O)N[C@H](C(=O)N[C@@H](Cc1ccc(O)cc1)C(N)=O)[C@@H](C)O)C(C)C)[C@@H](C)O
notes: Synthetic acylated analogue of human amylin
By IC50 is commonly meant the midpoint of a concentration-inhibition curve. As for B1, the “Ratio rCT/rAmylin binding” value in assay [1] turned out to be 159. The IC50 in assay [2] was 3.14 nM; in assay [3], 498 nM. The “Ratio hCT/hAmylin binding” value in assay [4] is 29.1.

B2: N^ε1-[(4S)-4-carboxy-4-[[(4S)-4-carboxy-4-(19-carboxynonadecanoylamino)butanoyl]amino]butanoyl]-[Glu14,Arg17,Pro21,Pro27,Pro34,Phe37]-h-amylin (peptide)
peptide: K([γGlu-γGlu-C20 diacid])CNTATCATQRLAEFLRHSSPNFGAIPSSTNVGPNTF-NH2
modifications: disulfide 2-7; N-terminus assumed
SMILES: CC[C@H](C)[C@H](NC(=O)[C@H](C)NC(=O)CNC(=O)[C@H](Cc1ccccc1)NC(=O)[C@H](CC(N)=O)NC(=O)[C@@H]1CCCN1C(=O)[C@H](CO)NC(=O)[C@H](CO)NC(=O)[C@H](Cc1c[nH]cn1)NC(=O)[C@H](CCCNC(=N)N)NC(=O)[C@H](CC(C)C)NC(=O)[C@H](Cc1ccccc1)NC(=O)[C@H](CCC(=O)O)NC(=O)[C@H](C)NC(=O)[C@H](CC(C)C)NC(=O)[C@H](CCCNC(=N)N)NC(=O)[C@H](CCC(N)=O)NC(=O)[C@@H](NC(=O)[C@H](C)NC(=O)[C@@H]1CSSC[C@H](NC(=O)[C@@H](N)CCCCNC(=O)CC[C@H](NC(=O)CC[C@H](NC(=O)CCCCCCCCCCCCCCCCCCC(=O)O)C(=O)O)C(=O)O)C(=O)N[C@@H](CC(N)=O)C(=O)N[C@@H]([C@@H](C)O)C(=O)N[C@@H](C)C(=O)N[C@@H]([C@@H](C)O)C(=O)N1)[C@@H](C)O)C(=O)N1CCC[C@H]1C(=O)N[C@@H](CO)C(=O)N[C@@H](CO)C(=O)N[C@H](C(=O)N[C@@H](CC(N)=O)C(=O)N[C@H](C(=O)NCC(=O)N1CCC[C@H]1C(=O)N[C@@H](CC(N)=O)C(=O)N[C@H](C(=O)N[C@@H](Cc1ccccc1)C(N)=O)[C@@H](C)O)C(C)C)[C@@H](C)O
notes: as for B1
In the case of B2, the “Ratio rCT/rAmylin binding” value in assay [1] was 114. The concentration for half-maximal inhibition (IC50) came out at 0.205 nM in assay [2] and 23.4 nM in assay [3]. Moreover, the “Ratio hCT/hAmylin binding” value in assay [4] stood at 18.

B3: N^ε1-[(4S)-4-carboxy-4-[[(4S)-4-carboxy-4-(19-carboxynonadecanoylamino)butanoyl]amino]butanoyl]-[Glu14,Arg17,Pro21,Pro27,Pro34,His35]-h-amylin (peptide)
peptide: K([γGlu-γGlu-C20 diacid])CNTATCATQRLAEFLRHSSPNFGAIPSSTNVGPHTY-NH2
modifications: disulfide 2-7 (inferred)
notes: as for B1
Turning to B3, the “Ratio rCT/rAmylin binding” value in assay [1] worked out at 73. Moreover, the IC50 was 0.288 nM in assay [2] and 21 nM in assay [3]. In addition, the “Ratio hCT/hAmylin binding” value in assay [4] came out at 27.3.

B4: N^ε1-[(4S)-4-carboxy-4-[[(4S)-4-carboxy-4-(19-carboxynonadecanoylamino)butanoyl]amino]butanoyl]-[Glu14,Arg17,Pro21,Pro31,Pro34,Glu35]-h-amylin (peptide)
peptide: K([γGlu-γGlu-C20 diacid])CNTATCATQRLAEFLRHSSPNFGAILSSTPVGPETY-NH2
modifications: disulfide 2-7
notes: as for B1
Take B4: the “Ratio rCT/rAmylin binding” value in assay [1] was determined as 74.7. Further, the IC50 in assay [2] stood at 0.449 nM; in assay [3], 33.5 nM. Moreover, the “Ratio hCT/hAmylin binding” value in assay [4] was determined as 22.6.

B5: N^ε1-[(4S)-4-carboxy-4-[[(4S)-4-carboxy-4-(19-carboxynonadecanoylamino)butanoyl]amino]butanoyl]-[Glu14,Arg17,Pro21,Pro27,Pro34,Glu35,Pro37]-h-amylin (peptide)
peptide: K([γGlu-γGlu-C20 diacid])CNTATCATQRLAEFLRHSSPNFGAIPSSTNVGPETP-NH2
modifications: disulfide 2-7; N-terminus assumed
SMILES: CC[C@H](C)[C@H](NC(=O)[C@H](C)NC(=O)CNC(=O)[C@H](Cc1ccccc1)NC(=O)[C@H](CC(N)=O)NC(=O)[C@@H]1CCCN1C(=O)[C@H](CO)NC(=O)[C@H](CO)NC(=O)[C@H](Cc1c[nH]cn1)NC(=O)[C@H](CCCNC(=N)N)NC(=O)[C@H](CC(C)C)NC(=O)[C@H](Cc1ccccc1)NC(=O)[C@H](CCC(=O)O)NC(=O)[C@H](C)NC(=O)[C@H](CC(C)C)NC(=O)[C@H](CCCNC(=N)N)NC(=O)[C@H](CCC(N)=O)NC(=O)[C@@H](NC(=O)[C@H](C)NC(=O)[C@@H]1CSSC[C@H](NC(=O)[C@@H](N)CCCCNC(=O)CC[C@H](NC(=O)CC[C@H](NC(=O)CCCCCCCCCCCCCCCCCCC(=O)O)C(=O)O)C(=O)O)C(=O)N[C@@H](CC(N)=O)C(=O)N[C@@H]([C@@H](C)O)C(=O)N[C@@H](C)C(=O)N[C@@H]([C@@H](C)O)C(=O)N1)[C@@H](C)O)C(=O)N1CCC[C@H]1C(=O)N[C@@H](CO)C(=O)N[C@@H](CO)C(=O)N[C@H](C(=O)N[C@@H](CC(N)=O)C(=O)N[C@H](C(=O)NCC(=O)N1CCC[C@H]1C(=O)N[C@@H](CCC(=O)O)C(=O)N[C@H](C(=O)N1CCC[C@H]1C(N)=O)[C@@H](C)O)C(C)C)[C@@H](C)O
notes: as for B1
Take B5: the “Ratio rCT/rAmylin binding” value in assay [1] was determined as 10.6. For the same molecule, the IC50 in assay [2] stood at 0.152 nM; in assay [3], 1.61 nM. Also, in assay [4], the “Ratio hCT/hAmylin binding” value turned out to be 0.4.

B6: N^ε1-[(4S)-4-carboxy-4-[[(4S)-4-carboxy-4-(19-carboxynonadecanoylamino)butanoyl]amino]butanoyl]-[Glu14,Arg17,Pro21,Pro27,Pro34,Arg35]-h-amylin (peptide)
peptide: K([γGlu-γGlu-C20 diacid])CNTATCATQRLAEFLRHSSPNFGAIPSSTNVGPRTY-NH2
modifications: disulfide 2-7; N-terminus assumed
SMILES: CC[C@H](C)[C@H](NC(=O)[C@H](C)NC(=O)CNC(=O)[C@H](Cc1ccccc1)NC(=O)[C@H](CC(N)=O)NC(=O)[C@@H]1CCCN1C(=O)[C@H](CO)NC(=O)[C@H](CO)NC(=O)[C@H](Cc1c[nH]cn1)NC(=O)[C@H](CCCNC(=N)N)NC(=O)[C@H](CC(C)C)NC(=O)[C@H](Cc1ccccc1)NC(=O)[C@H](CCC(=O)O)NC(=O)[C@H](C)NC(=O)[C@H](CC(C)C)NC(=O)[C@H](CCCNC(=N)N)NC(=O)[C@H](CCC(N)=O)NC(=O)[C@@H](NC(=O)[C@H](C)NC(=O)[C@@H]1CSSC[C@H](NC(=O)[C@@H](N)CCCCNC(=O)CC[C@H](NC(=O)CC[C@H](NC(=O)CCCCCCCCCCCCCCCCCCC(=O)O)C(=O)O)C(=O)O)C(=O)N[C@@H](CC(N)=O)C(=O)N[C@@H]([C@@H](C)O)C(=O)N[C@@H](C)C(=O)N[C@@H]([C@@H](C)O)C(=O)N1)[C@@H](C)O)C(=O)N1CCC[C@H]1C(=O)N[C@@H](CO)C(=O)N[C@@H](CO)C(=O)N[C@H](C(=O)N[C@@H](CC(N)=O)C(=O)N[C@H](C(=O)NCC(=O)N1CCC[C@H]1C(=O)N[C@@H](CCCNC(=N)N)C(=O)N[C@H](C(=O)N[C@@H](Cc1ccc(O)cc1)C(N)=O)[C@@H](C)O)C(C)C)[C@@H](C)O
notes: Synthetic acylated analogue of human amylin; also called compound 110
As to B6, in assay [1], the “Ratio rCT/rAmylin binding” value was 113. Moreover, the results for the half-maximal inhibitory concentration (IC50) in assay [2] and in assay [3] were 0.339 nM and 38.3 nM, respectively. Further, the “Ratio hCT/hAmylin binding” value in assay [4] was 53.6.
